The target in this test is T1, biotinylated CD3 epsilon:delta heterodimer protein (Amsbio AMS.CDD-H52WO) (Homo sapiens (Human), UniProt P07766 23-126; P04234 22-105).
T1 construct: also called CD3 heterodimer
In words: BLI (Octet), CD3 on SA sensor, Fab analyte.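 Further: biolayer interferometry with biotinylated CD3 epsilon:delta captured on streptavidin sensors, Fab analyte at several concentrations up to 300 nM, 100 s association then 300 s dissociation.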 For orientation: Biolayer interferometry detects binding as a change in optical thickness at a sensor tip.

Residue numbers refer to the chain shown, from its start.

Experimental: The CD3 binding kinetics of the purified huSP34 Fabs were determined using OctetRed384 (Pall ForteBio, CA) biolayer interferometry (BLI). […] Streptavidin (SA) coated biosensors tips (Pall ForteBio, CA) were used to capture biotinylated CD3 epsilon: delta heterodimer and typical immobilization levels captured on the SA sensors were 1 nm which approximately translates to 300 ng/ml of captured protein. For kinetic measurements biosensors were first pre-wetted with assay buffer for 10 minutes to remove protective sucrose coating followed by the recommended regeneration conditions for standardization of the biosensor surface for the experiment. In order to load the biosensors with antigen, 300 ng/ml of biotinylated CD3 epsilon: delta heterodimer protein (Amsbio AMS.CDD-H52WO) was immobilized on the SA sensor for 900 seconds. The CD3 loaded biosensors were then blocked with 20 ug/ml biocytin (sigma) for 200 seconds and then dipped into assay buffer containing wells for 200 seconds to remove any non-specific protein or unbound CD3 heterodimer.
CD3 loaded and biocytin blocked biosensors were then transferred into fresh assay buffer for 200 seconds to collect a baseline read. Kinetic measurements for anti-CD3 Fab and bispecific antibody binding were performed by dipping the CD3-coated biosensors into wells containing multiple concentrations of Fab or Ab (0-300 nM) for 100 seconds followed by a 300 second dissociation time by transferring the biosensors into assay buffer containing wells. The CD3 loaded sensors were then regenerated for the next kinetic measurement. Biosensors were generated by removing bound Fabs or Ab from immobilized CD3 on SA biosensors. Regeneration conditions used consisted of 3 cycles of 5 seconds of dipping the biosensors in Regeneration Buffer (10 mM Glycine HCl pH 1.5) followed by Assay Buffer (10 mM sodium phosphate pH 7.4, 140 mM Sodium Chloride, 0.005% Tween20 with 0.2% BSA).

B1: huSP34.4.1 Fab-HF (Fab, V domains shown)
VH: EVQLVESGGGLVQPGGSLRLSCAASGFTFSTYAMNWVRQAPGKGLEWVGRIRSKYNNYATYYAASVKGRFTISRDDSKNSLYLQMNSLRTEDTAVYYCVRHGNFGHSYVSWFAVWGQGTLVTVSS
VL: QAVVTQEPSLTVSPGGTVTLTCRSSTGAVTTSNYANWVQQKPGQAPRGLIGGTNKRAPWTPARFSGSLIGDKAALTLSGAQPEDEAEYYCALWYSNLWVFGGGTKLTVL
notes: also called HC4+LC1
What is called Kd is the free concentration of one partner at which half of the binding sites on the other are occupied at equilibrium, for simple one-to-one binding. High values mean a looser complex, low ones a tighter complex. Broadly, the koff is the first-order rate constant of dissociation. Read a high koff as a short-lived complex. For orientation: kon means a measure of how fast the partners come together. A low value points to slow association. B1 displayed a Kd of 19.8 nM, a koff of 0.00723 s⁻¹ and a kon of 396000 M⁻¹ s⁻¹.

B2: huSP34.4.5 Fab-HF (Fab, V domains shown)
VH: B1 VH
VL: B1 VL with R23G, S32G, N33H, N54S, K55N, I69L, D71G, N96A, L97R
notes: also called HC4+LC5
For the molecule B2, binding was characterised by a dissociation constant (Kd) of 211 nM, the koff came to 0.0506 s⁻¹ and the kon stood at 241000 M⁻¹ s⁻¹.

B3: huSP34.5.1 Fab-HF (Fab, V domains shown)
VH: B1 VH with A64D, D76N, S80T, T90A
VL: B1 VL
notes: also called HC5+LC1
As for B3, the dissociation constant Kd is 123 nM, the koff turned out to be 0.0365 s⁻¹ and the kon came out at 311000 M⁻¹ s⁻¹.

B4: huSP34.6.4 Fab-HF (Fab, V domains shown)
VH: B1 VH with A64D, D76N, S80T, T90A, V95M, H106N
VL: B1 VL with R23G, N33H, N54S, I69L, D71G, N96A
notes: also called HC6+LC4
For the molecule B4, binding was characterised by a dissociation constant (Kd) of 570 nM, the dissociation rate constant (koff) worked out at 0.202 s⁻¹ and the kon is 359000 M⁻¹ s⁻¹.

B5: huSP34.6.2 Fab-HF (Fab, V domains shown)
VH: B1 VH with A64D, D76N, S80T, T90A, V95M, H106N
VL: B1 VL with R23G, N54S, K55N, I69L, D71G
notes: also called HC6+LC2
In the case of B5, the Kd turned out to be 351 nM, the dissociation rate constant (koff) stood at 0.0499 s⁻¹ and the kon was 144000 M⁻¹ s⁻¹.

B6: huSP34.6.1 Fab-HF (Fab, V domains shown)
VH: B1 VH with A64D, D76N, S80T, T90A, V95M, H106N
VL: B1 VL
notes: also called HC6+LC1
Take B6: the Kd worked out at 53.9 nM, the off-rate constant (koff) stood at 0.0199 s⁻¹ and the kon is 478000 M⁻¹ s⁻¹.

B7: huSP34.4.6 Fab-HF (Fab, V domains shown)
VH: B1 VH
VL: QAVVTQPPSLTVSPGGTVTLTCGSSTGAVTTGHYANWVQQKPGQAPRGLIGGTSNRAPGVPARFSGSLSGGKAALTISGAQPEDEAEYYCALWYSARWVFGGGTKLTVL
notes: also called HC4+LC6
In the case of B7, the Kd came to 22.7 nM, the dissociation rate constant (koff) is 0.0101 s⁻¹ and the kon is 451000 M⁻¹ s⁻¹.

B8: huSP34.4.4 Fab-HF (Fab, V domains shown)
VH: B1 VH
VL: B1 VL with R23G, N33H, N54S, I69L, D71G, N96A
notes: also called HC4+LC4
Molecule B8 came in with a dissociation constant (Kd) of 159 nM, an off-rate (koff) of 0.0436 s⁻¹ and a kon of 274000 M⁻¹ s⁻¹.

B9: huSP34.5.5 Fab-HF (Fab, V domains shown)
VH: B1 VH with A64D, D76N, S80T, T90A
VL: B7 VL with P7E, G59W, V60T, S69L, I77L
notes: also called HC5+LC5
B9 yielded an equilibrium dissociation constant (Kd) of 666 nM, a dissociation rate constant (koff) of 0.185 s⁻¹ and an on-rate (kon) of 277000 M⁻¹ s⁻¹.

B10: huSP34.4.2 Fab-HF (Fab, V domains shown)
VH: B1 VH
VL: B1 VL with R23G, N54S, K55N, I69L, D71G
notes: also called HC4+LC2
On to B10, for which binding was put at a Kd of 45.2 nM, the koff worked out at 0.0144 s⁻¹ and the kon amounted to 321000 M⁻¹ s⁻¹.

B11: huSP34.5.2 Fab-HF (Fab, V domains shown)
VH: B1 VH with A64D, D76N, S80T, T90A
VL: B1 VL with R23G, N54S, K55N, I69L, D71G
notes: also called HC5+LC2
Take B11: the equilibrium dissociation constant (Kd) was 1200 nM, the koff turned out to be 0.109 s⁻¹ and the on-rate (kon) was determined as 90800 M⁻¹ s⁻¹.

B12: huSP34.5.4 Fab-HF (Fab, V domains shown)
VH: B1 VH with A64D, D76N, S80T, T90A
VL: B1 VL with R23G, N33H, N54S, I69L, D71G, N96A
notes: also called HC5+LC4
Molecule B12 yielded a Kd of 497 nM, a koff of 0.213 s⁻¹ and a kon of 429000 M⁻¹ s⁻¹.

The values are drawn from US20230056252A1 (Gilead, published 2023).
